Test results: the supplement of paper PMC9112550, “Optimization of the antimicrobial peptide Bac7 by deep mutational scanning” (BMC Biology, 2022)

These sequences were tested on Escherichia coli TOP10 (assay: shrunken log2 fold change of peptide-encoding DNA abundance (4.5 h post-induction vs induction); higher = less antimicrobial activity (less host growth inhibition)). Details: time post-induction: 4.5 h; library: site-saturation at positions 5, 18, 19, 20.
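Also: peptides expressed intracellularly from a pBAD plasmid library in pooled LB shake-flask culture, induced with 0.3% L-arabinose, DNA abundance read by NGS, three biological replicates, DESeq2 with apeglm shrinkage.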

Row | Sequence | shrunken log2 fold change
1 | RRIRSRPPRLPRPRPRPMPTPRP | 0.358
2 | RRIRTRPPRLPRPRPRPKVKPRP | 0.00985
3 | RRIRARPPRLPRPRPRPEQVPRP | 0.453
4 | RRIRFRPPRLPRPRPRPEHHPRP | -0.306
5 | RRIRHRPPRLPRPRPRPKCVPRP | -0.069
6 | RRIRFRPPRLPRPRPRPGCEPRP | 0.187
7 | RRIRDRPPRLPRPRPRPQSMPRP | 0.0598
8 | RRIRTRPPRLPRPRPRPALWPRP | 0.213
9 | RRIRGRPPRLPRPRPRPSGYPRP | -0.167
10 | RRIRPRPPRLPRPRPRPLPYPRP | -0.31
11 | RRIRNRPPRLPRPRPRPDMQPRP | -0.0295
12 | RRIRHRPPRLPRPRPRPSDCPRP | -0.126
13 | RRIRKRPPRLPRPRPRPKAFPRP | 0.0156
14 | RRIRERPPRLPRPRPRPHRGPRP | 0.0526
15 | RRIRCRPPRLPRPRPRPIWKPRP | 0.0906
16 | RRIRMRPPRLPRPRPRPKNMPRP | -0.0276
17 | RRIRIRPPRLPRPRPRPEVSPRP | 0.068
18 | RRIRRRPPRLPRPRPRPQLTPRP | 0.122
19 | RRIRVRPPRLPRPRPRPDWIPRP | -0.218
20 | RRIRMRPPRLPRPRPRPHTDPRP | 0.0445
21 | RRIRWRPPRLPRPRPRPEGLPRP | 0.267
22 | RRIRGRPPRLPRPRPRPSCDPRP | 0.543
23 | RRIRWRPPRLPRPRPRPKRIPRP | 0.364
24 | RRIRFRPPRLPRPRPRPKPRPRP | 0.886
25 | RRIRVRPPRLPRPRPRPAQYPRP | -0.0437

Row | Sequence | shrunken log2 fold change
26 | RRIRPRPPRLPRPRPRPNFRPRP | 0.156
27 | RRIRKRPPRLPRPRPRPHDNPRP | 0.029
28 | RRIRIRPPRLPRPRPRPSVWPRP | -0.221
29 | RRIRKRPPRLPRPRPRPMITPRP | -0.278
30 | RRIRVRPPRLPRPRPRPETDPRP | 0.023
31 | RRIRKRPPRLPRPRPRPETVPRP | 0.0854
32 | RRIRWRPPRLPRPRPRPSWPPRP | 0.0582
33 | RRIRHRPPRLPRPRPRPEKVPRP | -0.017
34 | RRIRYRPPRLPRPRPRPHNCPRP | -0.381
35 | RRIRYRPPRLPRPRPRPEPTPRP | 0.0581
36 | RRIRTRPPRLPRPRPRPDMDPRP | 0.00854
37 | RRIRQRPPRLPRPRPRPNYNPRP | -0.0928
38 | RRIRTRPPRLPRPRPRPSMSPRP | -0.655
39 | RRIRNRPPRLPRPRPRPCGWPRP | 0.0822
40 | RRIRRRPPRLPRPRPRPSMTPRP | 0.315
41 | RRIRPRPPRLPRPRPRPYWTPRP | -0.68
42 | RRIRWRPPRLPRPRPRPNCHPRP | 0.0398
43 | RRIRNRPPRLPRPRPRPLSKPRP | -0.176
44 | RRIRMRPPRLPRPRPRPSIMPRP | 0.23
45 | RRIRQRPPRLPRPRPRPMCSPRP | -0.000965
46 | RRIRYRPPRLPRPRPRPTSQPRP | 0.054
47 | RRIRDRPPRLPRPRPRPLMNPRP | 0.0268
48 | RRIRSRPPRLPRPRPRPGVPPRP | 0.318
49 | RRIRQRPPRLPRPRPRPIRTPRP | -0.0597
50 | RRIRDRPPRLPRPRPRPITYPRP | 0.024

Row | Sequence | shrunken log2 fold change
51 | RRIRDRPPRLPRPRPRPMAGPRP | 0.00396
52 | RRIRCRPPRLPRPRPRPSVQPRP | -0.579
53 | RRIRRRPPRLPRPRPRPPISPRP | 0.0255
54 | RRIRDRPPRLPRPRPRPPGWPRP | 1.66
55 | RRIRFRPPRLPRPRPRPRYAPRP | 0.148
56 | RRIRKRPPRLPRPRPRPEVEPRP | 2.8
57 | RRIRTRPPRLPRPRPRPKWVPRP | 0.129
58 | RRIRRRPPRLPRPRPRPHRYPRP | -0.0438
59 | RRIRVRPPRLPRPRPRPESYPRP | 0.45
60 | RRIRARPPRLPRPRPRPNWMPRP | 0.0981
61 | RRIRQRPPRLPRPRPRPRKTPRP | 0.00489
62 | RRIRCRPPRLPRPRPRPDSAPRP | -0.181
63 | RRIRCRPPRLPRPRPRPWWTPRP | -0.383
64 | RRIRYRPPRLPRPRPRPNIKPRP | -1.13
65 | RRIRIRPPRLPRPRPRPHVGPRP | -0.0138
66 | RRIRSRPPRLPRPRPRPGPKPRP | 1.07
67 | RRIRNRPPRLPRPRPRPVKWPRP | -0.286
68 | RRIRGRPPRLPRPRPRPMYSPRP | 0.208
69 | RRIRCRPPRLPRPRPRPFDHPRP | 0.0529
70 | RRIRTRPPRLPRPRPRPNPWPRP | 0.0694
71 | RRIRIRPPRLPRPRPRPPMIPRP | -0.112
72 | RRIRPRPPRLPRPRPRPTGAPRP | 0.55
73 | RRIRVRPPRLPRPRPRPHQSPRP | -0.23
74 | RRIRNRPPRLPRPRPRPVGCPRP | 0.618
75 | RRIRYRPPRLPRPRPRPIPDPRP | 0.0657

Row | Sequence | shrunken log2 fold change
76 | RRIRMRPPRLPRPRPRPIPPPRP | 0.369
77 | RRIRPRPPRLPRPRPRPWEWPRP | 0.0238
78 | RRIRYRPPRLPRPRPRPITQPRP | -0.532
79 | RRIRKRPPRLPRPRPRPLAIPRP | 0.0828
80 | RRIRERPPRLPRPRPRPSGLPRP | -0.195
81 | RRIRMRPPRLPRPRPRPLQFPRP | 0.388
82 | RRIRPRPPRLPRPRPRPMERPRP | -0.0425
83 | RRIRRRPPRLPRPRPRPDKAPRP | -0.131
84 | RRIRMRPPRLPRPRPRPVIIPRP | -0.331
85 | RRIRHRPPRLPRPRPRPDEMPRP | 0.0307
86 | RRIRLRPPRLPRPRPRPQAVPRP | 0.0328
87 | RRIRNRPPRLPRPRPRPCSEPRP | -0.231
88 | RRIRTRPPRLPRPRPRPPNGPRP | 0.104
89 | RRIRGRPPRLPRPRPRPMFLPRP | -0.0125
90 | RRIRIRPPRLPRPRPRPWLEPRP | -0.293
91 | RRIRWRPPRLPRPRPRPCSDPRP | 0.273
92 | RRIRIRPPRLPRPRPRPYKIPRP | -0.688
93 | RRIRYRPPRLPRPRPRPPPVPRP | 0.61
94 | RRIRARPPRLPRPRPRPPSAPRP | 0.827
95 | RRIRWRPPRLPRPRPRPHHIPRP | -0.612
96 | RRIRMRPPRLPRPRPRPIPLPRP | 0.00552
97 | RRIRTRPPRLPRPRPRPTYHPRP | -0.291
98 | RRIRMRPPRLPRPRPRPGLHPRP | 0.412
99 | RRIRDRPPRLPRPRPRPVAFPRP | 0.589
100 | RRIRARPPRLPRPRPRPYILPRP | -0.983

Row | Sequence | shrunken log2 fold change
101 | RRIRVRPPRLPRPRPRPCARPRP | -0.0405
102 | RRIRMRPPRLPRPRPRPARKPRP | 1.29
103 | RRIRARPPRLPRPRPRPQNDPRP | 5.63e-05
104 | RRIRLRPPRLPRPRPRPPCLPRP | 0.0124
105 | RRIRDRPPRLPRPRPRPLCQPRP | 0.0964
106 | RRIRTRPPRLPRPRPRPTTPPRP | 0.245
107 | RRIRLRPPRLPRPRPRPWMRPRP | 0.892
108 | RRIRTRPPRLPRPRPRPCEYPRP | -0.0254
109 | RRIRNRPPRLPRPRPRPRYEPRP | -0.27
110 | RRIRGRPPRLPRPRPRPQHVPRP | -0.12
111 | RRIRGRPPRLPRPRPRPQEQPRP | 0.458
112 | RRIRERPPRLPRPRPRPKYVPRP | -0.475
113 | RRIRKRPPRLPRPRPRPRIRPRP | 0.344
114 | RRIRNRPPRLPRPRPRPHHDPRP | -1.01
115 | RRIRYRPPRLPRPRPRPHNPPRP | -1.15
116 | RRIRIRPPRLPRPRPRPGYFPRP | -0.904
117 | RRIRGRPPRLPRPRPRPGGLPRP | 0.842
118 | RRIRYRPPRLPRPRPRPHTTPRP | -0.0318
119 | RRIRLRPPRLPRPRPRPDEHPRP | -0.287
120 | RRIRDRPPRLPRPRPRPLMGPRP | 0.0162
121 | RRIRLRPPRLPRPRPRPTSIPRP | -0.178
122 | RRIRARPPRLPRPRPRPYFTPRP | -0.71
123 | RRIRFRPPRLPRPRPRPASIPRP | -0.231
124 | RRIRCRPPRLPRPRPRPEWPPRP | 0.331
125 | RRIRTRPPRLPRPRPRPRDCPRP | 0.057

Row | Sequence | shrunken log2 fold change
126 | RRIRMRPPRLPRPRPRPYGDPRP | 0.0122
127 | RRIRTRPPRLPRPRPRPSDTPRP | -0.212
128 | RRIRMRPPRLPRPRPRPFDYPRP | -0.16
129 | RRIRPRPPRLPRPRPRPDVSPRP | 0.0525
130 | RRIRDRPPRLPRPRPRPFWTPRP | -0.116
131 | RRIRGRPPRLPRPRPRPSWMPRP | -0.208
132 | RRIRPRPPRLPRPRPRPRIKPRP | -0.138
133 | RRIRYRPPRLPRPRPRPIPLPRP | -0.418
134 | RRIRSRPPRLPRPRPRPVENPRP | 0.0506
135 | RRIRVRPPRLPRPRPRPVWEPRP | 0.0761
136 | RRIRLRPPRLPRPRPRPQACPRP | 0.00768
137 | RRIRLRPPRLPRPRPRPKDCPRP | -0.495
138 | RRIRWRPPRLPRPRPRPRCRPRP | 0.371
139 | RRIRRRPPRLPRPRPRPSPNPRP | 0.396
140 | RRIRNRPPRLPRPRPRPVENPRP | -0.0754
141 | RRIRGRPPRLPRPRPRPVVEPRP | 0.937
142 | RRIRARPPRLPRPRPRPNYSPRP | -0.502
143 | RRIRPRPPRLPRPRPRPGTYPRP | -0.147
144 | RRIRGRPPRLPRPRPRPRIGPRP | 0.779
145 | RRIRRRPPRLPRPRPRPHAGPRP | 0.425
146 | RRIRLRPPRLPRPRPRPRMYPRP | -0.166
147 | RRIRCRPPRLPRPRPRPYCKPRP | -0.894
148 | RRIRHRPPRLPRPRPRPAIKPRP | 0.00883
149 | RRIRYRPPRLPRPRPRPNDQPRP | -0.819
150 | RRIRARPPRLPRPRPRPSADPRP | 0.804
